Patent US20260224701A1 (University of Texas, published 2026)
Numbering of substitutions follows the chain as printed. Values belong to the binder of their own block, whether it stands above or below them.

Key:
Test in all cases: biolayer interferometry (Octet), antibody captured on the probe, extracellular domain in solution
[1] = biological target: T1, human 2Ig-B7-H3 extracellular domain (human, UniProt Q5ZPR3 29-466)
T1 chain: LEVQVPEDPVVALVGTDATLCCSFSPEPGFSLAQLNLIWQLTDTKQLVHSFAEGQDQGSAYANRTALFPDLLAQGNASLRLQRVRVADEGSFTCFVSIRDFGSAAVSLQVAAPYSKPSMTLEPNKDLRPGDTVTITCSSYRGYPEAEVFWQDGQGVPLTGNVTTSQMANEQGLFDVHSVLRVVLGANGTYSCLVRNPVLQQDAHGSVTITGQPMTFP

[2] = biological target: T2, Porcine 4Ig-B7-H3 extracellular domain (porcine, UniProt A0A287AJ27 27-466)
T2 construct: extracellular domain; Bought protein; also called Porcine 4Ig-B7H-3 protein
Experimental: (§1) The extracellular domains of the indicated 4Ig-B7-H3 and 2Ig-B7-H3 proteins were purchased from R&D systems. All proteins were validated by the vendor to be both pure and functional. KD values were determined utilizing capture biolayer interferometry (Octet, Molecular Devices) in “affinity” mode, wherein the […] antibody was captured on the tip of the probe and placed into solutions containing different concentrations of target extracellular domain.

[3] = biological target: T3, Cynomolgus 4Ig-B7-H3 extracellular domain (cynomolgus)
T3 construct: extracellular domain; Bought protein; also called Cynomolgus 4Ig-B7H-3 protein
Experimental: as §1

Kd [1]: 21.6 nM
B1: MIL33B-H1-hIgG1 (antibody, V domains shown)
VH: QVQLVQSGAEVKKPGASVKVSCKASGYTFTSYVMHWVRQAPGQRLEWMGYINSYSDGTKYNEKFKGRVTITSDTSASTAYMELSSLRSEDTAVYYCARWGGLGNGAMDYWGQGTLVTVSS
VL: EIVLTQSPATLSLSPGERATLSCSVSSSVNYMHWYQQKPGQAPRRLIYDTSKLASGIPARFSGSGSGTDYTLTISSLEPEDFAVYYCQQWTSNPLTFGQGTKLEIK
notes: also called AHF15945; AHF 15945

Kd [1]: 43.5 nM | Kd [2]: 0.559 nM | Kd [3]: 0.28 nM
B2: MIL33B-H3-hIgG1 (antibody, V domains shown)
VH: B1 VH with S72R
VL: B1 VL
notes: also called hMIL33B-H3; humanized MIL33B-H3

Kd [1]: 14 nM
B3: MIL33B-H2-hIgG1 (antibody, V domains shown)
VH: B1 VH with V68A, S72R
VL: B1 VL
notes: also called AHF15938; AHF 15938

Kd [1]: 13.2 nM
B4: MIL33B chimeric antibody (full-length IgG) (antibody, V domains shown)
VH: EVQLQQSGPELVKPGASVKMSCKASGYTFTSYVMHWVRQSPGQGLEGIGYINSYSDGTKYNEKFKGKATLTSDKSSSTAYMELSGLTSEDSAVYYCARWGGLGNGAMDYWGQGTSVTVSS
VL: QIVLTQSPAIMSASPGEKVTMTCSVSSSVNYMHWYQQKSGTSPKRWIYDTSKLASGVPARFSASGSGTSYSLTISSMEAEDAATYYCQQWTSNPLTFGAGTKLELKR
notes: also called Chimeric VH + VL; MIL33B-chimera
